± gives the uncertainty stated by the source.

A short description of one series: amyloid nucleation score (Sup35N fusion, yeast selection) (log enrichment); library NNK1; higher = more nucleation; inactive = no reads after selection. The essentials:
(§1)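 Yeast lacking psi expressed peptides of 20 random codons fused to Sup35N, received 100 μM copper sulfate for 24 hours, and were then grown for 7 days at 30°C on medium lacking adenine and uracil. Illumina sequencing of input and output plasmid inserts provided the reads. Nucleation scores are DiMSum log enrichments of output over input, centred on the mode of non-aggregating sequences. Any sequence with under 100 input reads was excluded.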
Consider AAALRIIGHYMRALLTELLQ, for which the amyloid nucleation score was found to be 0.687 ± 0.46.

Regarding AALWHFNFINRSFRTVGPAG, the amyloid nucleation score is -0.569 ± 0.38. As to AAPRWSYEAASANAMLFVIL, the amyloid nucleation score was determined as 2.89 ± 0.25. The same measure, in the same setting: the value for ACFEFKLGTFRLGAALNYPG was 1.03 ± 0.31. Still for that read-out and setting: the value for ACLSNGKWKYPLGYESSLRR was -0.968 ± 1.1; that for ACNCHMWV was 1.31 ± 0.59.

In the case of ACPDHMRV, the amyloid nucleation score stood at 1.33 ± 0.62.

For ACRDVGHSVVLCKFKS, the amyloid nucleation score is -1.01 ± 1.4. Turning to ADACVRFLRGYYFNGFPMRW, the amyloid nucleation score amounted to 1.03 ± 0.9. The same measure, in the same setting: the figure for ADCGRSVLTKVKRCDTFFSG is 0.023 ± 0.27. Still for that read-out and setting: the entry for ADDGAVLCRCEAGGTSWSVC is “inactive”; for ADFVSFSSFYFWWHVVSLDT it is 0.238 ± 0.56; for ADILWARFLWMSEGIH it is 0.054 ± 0.23.

In the case of ADLRVFHYRYFGS, the amyloid nucleation score was -0.223 ± 0.49. On the same count and under the same terms, the figure for AEASKYVMYIKARCMQLMRS is -0.931 ± 1.1. Still for that read-out and setting: the figure for AEKSFWHSSNPFIALPRTHR is -1 ± 0.93; for AFCIFCSRLAEIAHLAF it is 7.133 ± 0.046. Still for that read-out and setting: the value for AFCNVADCNIRGSWLVRLRR was 1.21 ± 0.41; that for AFCRCNNRKVEQLMNLCGVF was -0.771 ± 0.49. With AFFPGNFWACGSFDFLWYWL, the amyloid nucleation score was found to be 3.38 ± 0.083. On the same count and under the same terms, the figure for AFFYVVCFDVCKMSTMYLFG is -2.44 ± 2.4; for AFHLTSSSLFLFSWNSWVAV it is 5.3 ± 0.082.

The substance AFIKNLTLCLDWTHSGAVYM showed an amyloid nucleation score of 7.24 ± 0.08. For the substance AFKNAAGMRGMTWISSEVGA, the amyloid nucleation score stood at 0.145 ± 0.42. Same read-out and setting: the value for AFLMMSTVAPTLWMIMPSYS was 0.446 ± 0.48; that for AFMSRVGLHW was 0.691 ± 0.25; that for AFNSFIGFHCPSDVWCMKRN was 5.25 ± 0.051. AFRTS: the amyloid nucleation score was -0.203 ± 0.43.

Substance AFRYDRVWVGQQLFGQECRP registered an amyloid nucleation score of 0.054 ± 0.46. AFVEGRMNHPYSGTMLSRRG yielded an amyloid nucleation score of 0.418 ± 0.53. Regarding AFYGVDFSSGRGLFSY, the amyloid nucleation score is -0.574 ± 1.1. In turn, AGDTGFTHTYSCWIKQWFVF displayed an amyloid nucleation score of 0.705 ± 0.47. In the case of AGECRYLLMSVDGYIGLNLV, the amyloid nucleation score was 1.07 ± 0.48.

Substance AGHYLCGSITNLTA came in with an amyloid nucleation score of 0.721 ± 0.97. As for AGLMTGATSLQLMKFCSLGG, the amyloid nucleation score is -0.729 ± 0.71. Regarding AGNFVVPMDAE, the amyloid nucleation score worked out at 1.62 ± 0.41. Take AGSFFSYGQFVKFTVLYHSE: the amyloid nucleation score was -0.053 ± 0.6.

In the case of AGSGRGRGGCTSNRSDYSSG, the amyloid nucleation score was -0.849 ± 1. Same read-out and setting: the figure for AGVAGL is -0.661 ± 0.4; for AGYFCL it is -0.449 ± 0.47; for AHFVRVDHNGGGLCMLGISR it is -1.21 ± 0.86. In turn, AHGRHDLRWCLRSRDSMWRA displayed an amyloid nucleation score of 1.2 ± 0.53.

For the substance AHLEGYYHWHYSEFWSVVVK, the amyloid nucleation score is -0.437 ± 0.31. The same measure, in the same setting: the value for AHLRCDREDIVESTSECGVG was “inactive”.

AIFNLVSSL: the amyloid nucleation score was -0.792 ± 1. Still for that read-out and setting: the figure for AIRPSIR is -0.318 ± 0.33; for AISYDTYYTGELSSLWSGLS it is 0.666 ± 0.57; for AIVYRQKLISQLYFARLLRH it is 0.063 ± 1.4. Consider AKCGICLFYGM, for which the amyloid nucleation score is -0.358 ± 0.36.

The substance AKLMGCYMQRSICITRVPFL returned an amyloid nucleation score of 0.702 ± 0.51. Same read-out and setting: the figure for ALCYWNSTVD is -0.057 ± 0.41.

On to ALEWHGQTYSFRIEI, for which the amyloid nucleation score worked out at 0.537 ± 0.36. As to ALFGERPCCRC, the amyloid nucleation score was found to be 0.158 ± 0.28. Same read-out and setting: the value for ALGYIPPRRCMTGSPPSVPR was 0.529 ± 0.84. The same measure, in the same setting: the figure for ALNFTYLVSSNKHRSED is 5.12 ± 0.1; for ALQTPFSKNMEYCCNQ it is 0.222 ± 0.41; for ALRAP it is -0.383 ± 0.62. In the case of ALSLVISCSGSWRKGRRFLS, the amyloid nucleation score was -0.53 ± 0.64.

Regarding ALWNLCCHLGDGTAADSTVY, the amyloid nucleation score was -0.46 ± 1.9.

Substance ALYSDRDI registered an amyloid nucleation score of 0.939 ± 0.29. Still for that read-out and setting: the value for AMDMSADAGDSWNCGCQYSN was “inactive”. AMQKESRGTWGSVTAQVHGM returned an amyloid nucleation score of 0.304 ± 0.59. Still for that read-out and setting: the figure for ANDMMRKDCTFDTSVFMESV is -0.379 ± 0.26. ANKLCSVKQQTPRLRWYMGS returned an amyloid nucleation score of 0.856 ± 0.48. On to ANLACACCCYP, for which the amyloid nucleation score is -0.146 ± 0.96. Consider ANLDYWRSSTFTEHMVGLNR, for which the amyloid nucleation score is -0.469 ± 1.2. Same read-out and setting: the figure for ANLKISSALDVVRHRRKYQY is 0.014 ± 0.54; for ANSVIFDGRSKGLAKHTVSY it is -0.276 ± 0.65; for ANTNAFKHLNYILMVLVLQG it is “inactive”. Still for that read-out and setting: the value for APEVNRLTCSYRSDRLKTS was 0.095 ± 0.83; that for APGWTVDTSPYSAGVCVVTP was 0.099 ± 0.4. Take APMHINLWRDGTNVGQDWVV: the amyloid nucleation score amounted to 1.88 ± 0.69. With APQSRFNHEYFFENIRRVVV, the amyloid nucleation score entry was “inactive”.

On to APRAAN, for which the amyloid nucleation score is -0.126 ± 0.41.

On to APSNNFCNNGLMFRYVRPGD, for which the amyloid nucleation score amounted to 2.81 ± 0.21.

On to APSTDGMNMPTNGDRTPTLW, for which the amyloid nucleation score is 0.245 ± 0.42.

Substance APTRACSNGDMLREE registered an amyloid nucleation score of 1.35 ± 0.51. Consider AQAVLQLETRTIKIYRDGPK, for which the amyloid nucleation score was -1.08 ± 2.7. On the same count and under the same terms, the value for AQKCPALYRLMNMPEKEKVG was 0.18 ± 0.43; that for AQNLDPQWWCLVRCDCYPL was -0.49 ± 0.65; that for ARITMYLCFNRLLVGKVCSG was -0.176 ± 1.1. ARLSL came in with an amyloid nucleation score of 0.157 ± 0.64. ARQGASLGVK: the amyloid nucleation score was -1.11 ± 1.5. Turning to ARVPSKYRVEVHGRKKAWRG, the amyloid nucleation score was -0.814 ± 0.6. On to ARWWVRLEYC, for which the amyloid nucleation score was 0.523 ± 0.29. ASCVKYVW had an amyloid nucleation score of 1.31 ± 0.66. ASDLGATKHNLHFIACIFSL had an amyloid nucleation score of 4.77 ± 0.074.

ASFASKARHKR gave an amyloid nucleation score of 0.728 ± 0.87. On the same count and under the same terms, the value for ASFGGINLPL was -0.236 ± 0.41; that for ASFITGWMANTYN was 0.385 ± 0.42.

ASGKYNRLCIGFVWGCEQGM returned an amyloid nucleation score of 2.12 ± 0.26. Same read-out and setting: the value for ASGSI was -1.32 ± 2.4; that for ASIYCWLLNRHLDDDFLWLS was -0.702 ± 1.9; that for ASLHHKSWTDHADTMTPPRT was “inactive”.

As to ASMLFRSHQCCLIHSGADIN, the amyloid nucleation score is 0.979 ± 0.29. With ASNGVN, the amyloid nucleation score was -0.099 ± 0.5. Take ASPHWGSCNKTLRDGPRQVL: the amyloid nucleation score was -0.677 ± 0.65.

On to ASRAFSVVDYSGLLRGS, for which the amyloid nucleation score is 0.498 ± 0.61. Turning to ASRFDCEDIFGRTCGYVHYF, the amyloid nucleation score is -0.113 ± 0.79. With ASRVQGMYYHVHQPLKQLWV, the amyloid nucleation score entry is “inactive”. Same read-out and setting: the value for ASSSGFSMGLCQMYNGTFMG was -1.21 ± 0.94; that for ASTYMYGFSYIYMLVNRCEC was 1.59 ± 0.14. The substance ATGSMGQSSSTGDASKLASF displayed an amyloid nucleation score of 1.3 ± 0.32. Same read-out and setting: the value for ATMVMELMVSELGLEEVFDV was -0.216 ± 0.49; that for ATPMFNVPVHRCVKKV was -0.206 ± 0.46; that for ATRDYVSGANDGIGPQMMWV was 0.324 ± 0.49. In the case of ATRFIEESTL, the amyloid nucleation score was -0.942 ± 0.68.

ATRSSSFRMHDKNLCLTVDM showed an amyloid nucleation score of 0.855 ± 0.48.

For the substance ATSDI, the amyloid nucleation score was -0.076 ± 0.27. Same read-out and setting: the value for ATSGGYGRFLVIISFDWVGA was -0.34 ± 0.37. Take ATYSLIFEPWPGPRLVPMQG: the amyloid nucleation score was -0.12 ± 0.62. Still for that read-out and setting: the figure for AVFWSNYCSMSCMSKTKKKS is 0.159 ± 0.51; for AVGYYCKSINRKHFIVEKLQ it is -0.298 ± 0.4; for AVIAMYRVNAPSC it is 1.15 ± 0.41.

The substance AVIVVV displayed an amyloid nucleation score of 0.175 ± 0.39.

In turn, AVMFVTCLIVSASGHLLYTL had an amyloid nucleation score of 1.39 ± 0.88.

As to AVQYNKVKERTLSQPWTHHV, the amyloid nucleation score is -1.86 ± 1.7.

Consider AVRHLPAPRHSMCLIWYCNC, for which the amyloid nucleation score stood at 0.156 ± 0.37.

Take AVSDVTVIRRCMFIG: the amyloid nucleation score turned out to be 0.448 ± 0.47. On the same count and under the same terms, the figure for AVSNLATEGRVYLKVRLESW is -0.991 ± 2.4. The substance AVVAIYSQILRNGSVLSWFP registered an amyloid nucleation score of 0.242 ± 0.51.

Take AVYFSSFR: the amyloid nucleation score was 0.522 ± 0.33.

The next series can be described thus: amyloid nucleation score (Sup35N fusion, yeast selection) (log enrichment); library NNK2; higher = more nucleation; inactive = no reads after selection. The method, boiled down:
as §1
As to YWVYAGIGVRMCNRVYNNLR, the amyloid nucleation score was found to be 0.336 ± 0.3. The substance YWWCRPILILCSNLDDVWSL showed an amyloid nucleation score of 7.6 ± 0.079.

As for YYDSYPVT, the amyloid nucleation score worked out at 0.013 ± 0.28. Same read-out and setting: the entry for YYFNEREK is “inactive”. On the same count and under the same terms, the value for YYHCPTSFFYIV was “inactive”; that for YYIMCFSSGCDPLPQHCGWE was -0.821 ± 1.1. For the substance YYIQHHSF, the amyloid nucleation score came to 3.37 ± 0.082.

Turning to YYKQWG, the amyloid nucleation score result was “inactive”. Still for that read-out and setting: the entry for YYLNSTSGKDR is “inactive”; for YYLPLGYDWPWSYSKCSNTR it is 4.04 ± 0.072. On to YYMKVVMVDTQTQV, for which the amyloid nucleation score result is “inactive”. On the same count and under the same terms, the value for YYQRLRVHLYADIELYATLC was 0.266 ± 0.6. The same measure, in the same setting: the figure for YYSDVGVYSVRGYLLWS is -0.447 ± 0.61. Consider YYSKNAVVWVNGCVRRVMII, for which the amyloid nucleation score worked out at 0.127 ± 0.63. Same read-out and setting: the figure for YYVAIVSLWSGVKYVMVKFA is -1.07 ± 0.78; for YYWTPCGVCITFVGCNVILY it is 8.499 ± 0.022.

Source of the values: the supplement of paper PMC12042874.
